Results on one molecule are retold here after publication doi:10.1101/2024.04.18.590116 (bioRxiv, 2024).

This experiment deals with T1, 6xHis-MPK3 (rice, UniProt Q10N20 1-369).
T1 sequence (looked up): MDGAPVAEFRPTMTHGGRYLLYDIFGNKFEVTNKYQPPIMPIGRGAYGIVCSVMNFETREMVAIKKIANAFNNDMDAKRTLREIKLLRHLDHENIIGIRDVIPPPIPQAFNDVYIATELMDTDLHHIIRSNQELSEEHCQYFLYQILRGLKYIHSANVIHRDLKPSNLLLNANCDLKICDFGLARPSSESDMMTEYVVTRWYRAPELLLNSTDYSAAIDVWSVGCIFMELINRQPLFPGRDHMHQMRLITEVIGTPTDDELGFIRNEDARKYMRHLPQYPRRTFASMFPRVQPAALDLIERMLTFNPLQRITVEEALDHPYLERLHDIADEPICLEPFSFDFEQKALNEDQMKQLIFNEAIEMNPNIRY
The experiment can be described thus: pull-down.

B1: GST-KRP3 (natural protein, rice (Oryza sativa), UniProt Q2R185 1-225, looked up)
chain: MGKYLRSSCKQQQQPSSPAAVASVAAAAVSSYSYLTLRSGRRVPAAAAAAGGSACRRRHRRGGRRGCAKNGAGSARACGARSPTSSASSGQRRRCEAVECSHGGGRAELSRSPPLGNSVVVVSGDVVSGERKSLKPNSCSREVAAEHAGEHKHNPAAAAAAGRRPPLSPPEAEIEAFFAAAELAERRRFAEKYNYDIALDRPLQGRYEWEPTVPNFDVAKDVTDM
For B1, the binding result is “binds”.
